In article PMC3265570 (Nature structural & molecular biology, 2011):
No end group written: not given here.

Target: full-length Crk-II (SH2-nSH3-cSH3) (UniProt Q64010-1 1-304)
Experiment: other fluorescence titration

full-length Crk-II (SH2-nSH3-cSH3), sequence (Q64010 whole entry): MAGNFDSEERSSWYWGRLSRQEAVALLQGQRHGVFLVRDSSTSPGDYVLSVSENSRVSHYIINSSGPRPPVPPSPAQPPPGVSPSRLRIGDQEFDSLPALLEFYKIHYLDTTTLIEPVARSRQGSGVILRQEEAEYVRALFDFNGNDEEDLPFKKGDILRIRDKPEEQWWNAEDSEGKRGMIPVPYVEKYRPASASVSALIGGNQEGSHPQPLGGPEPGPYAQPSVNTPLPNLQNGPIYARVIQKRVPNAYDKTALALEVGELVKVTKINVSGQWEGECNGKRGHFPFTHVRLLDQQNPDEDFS

Kd: 286 ± 19 nM
Binder: HPPPPLPPKRRK(fluorescein)G-NH2 [fluorescein-labeled C3G-derived ligand]
